Reference: publication PMC4548480, “Structures of the Ultra-High-Affinity Protein–Protein Complexes of Pyocins S2 and AP41 and Their Cognate Immunity Proteins from Pseudomonas aeruginosa” (Journal of Molecular Biology, 2015)

Biological target: T1, pyocin S2 DNase domain (Pseudomonas aeruginosa, UniProt Q06584 556-688)
T1 construct: pyocin S2, Pseudomonas aeruginosa, residues 556-688 found in the crystal after crystallisation of the intact PyoS2-ImS2 complex with chymotrypsin; The fragment of PyoS2 in the crystal was unknown to the authors; The limits 556-688 are those found in the solved structure; also called PyoS2 DNase; PyoS2; source: crystallised in the presence of chymotrypsin
T1 sequence: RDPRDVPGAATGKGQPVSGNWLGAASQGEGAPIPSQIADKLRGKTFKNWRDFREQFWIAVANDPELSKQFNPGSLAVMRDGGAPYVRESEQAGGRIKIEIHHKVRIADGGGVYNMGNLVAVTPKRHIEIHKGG
Test: crystal structure; intact PyoS2-ImS2 complex crystallised with chymotrypsin (1:100); 0.2 M sodium bromide, 20% (w/v) PEG 3350, 0.1 M Bis-tris propane pH 6.5; 1.8 Å; four copies of the complex in the asymmetric unit
Details: both partners purified

B1: pyocin S2 immunity protein ImS2 (natural protein)
chain: MKSKISEYTEKEFLEFVKDIYTNNKKKFPTEESHIQAVLEFKKLTEHPSGSDLLYYPNENREDSPAGVVKEVKEWRASKGLPGFKAG
notes: immunity protein of pyocin S2 (ImS2), Pseudomonas aeruginosa, full length; the entirety of the immunity protein was present in the crystal
- binding result: binds
